This assay deals with trimeric BG505.SOSIP.664 T332N-avi-biotinylated protein (HIV-1 (BG505, clade A)). Put plainly: native gel or EMSA; BN-PAGE (NuPAGE 4-12% BisTris) of the SEC trimer peak, before and after biotinylation. (Mobility shift assays separate free from complexed probe on a gel.)

Take “trimeric BG505.SOSIP.664 T332N-avi-biotinylated protein (domain or fragment)”: the stoichiometry N (in general, a count of units in the complex or per binding partner) came to 3.
